Test results published in US20070202116A1, “Treatment of micro-organism infection” (priority 2001, published 2007).
Like-named read-outs stand apart in the source and are kept apart here.

Experiments:
[1] = tested on: EMRSA strains, vancomycin resistant subpopulations, Linzolid resistant strains; experiment: Checkerboard MIC / FIC / FIX of vancomycin and Aurograb (Tables 9, 10); format: cell-based, S. aureus; conditions: for MIC In combination: VAN with Aurograb
Description: In order to determine the Minimum Inhibitory Concentration (MIC), the Fractional Inhibitory Concentration (FIC) and the FIX (fractional inhibitory index), the following was method was used.
The cells were diluted in Isosensitest Broth (Oxoid, UK) to give a final inoculum of […] cells per mL. […] To this was added exogenous Aurograb in the range 0.3-25 μg/ml in a checkerboard formation. A negative control series was also prepared containing Aurograb formulation buffer alone. Cultures were incubated for 48 hours at 37° C.
The minimum inhibitory concentration (MIC) was defined as the lowest concentration of agent at which no bacterial growth occurred and was determined by spectrophotometric evaluation of the lack of turbidity (growth) in culture.
Fractional inhibitory concentrations (FIC) and FIX values were calculated. Synergistic activity between the two agents was defined as an FIX value ≦0.5. Indifferent activity was defined as a value of 0.5-4, and a value of ≧4 defined antagonism.
The MIC (Alone) column indicates the minimum inhibitory concentration of the agent when administered alone. The MIC (In combination) column indicates the minimum inhibitory concentration of each drug when used in combination.

[2] = tested on: EMRSA-15; experiment: Data Set 2: Aurograb dose ranging study in infected mice; format: in vivo, S. aureus; conditions: for Kidney log cfu per gram of tissue / Liver log cfu per gram of tissue / Spleen log cfu per gram of tissue: 48 hours; for Reduction in kidney bacterial counts: Experiment 1
Description: Aims: Dose ranging study for use of Aurograb versus S. aureus strain EMRSA-15.
Dose range is determined by comparing cfu (expressed as the log of the cfu per gram of tissue) for different organs at different doses.
[…] All mice terminated at 48 hours for culture of kidney, liver and spleen to determine organ viability counts.
Results: expressed as log cfu per gram of tissue
Experiment 1: S. aureus (1.5×10^7 cfu): EMRSA-15 (Table 5)
Experiment 2: S. aureus (9×10^6 cfu): clinical isolate EMRSA-15—low dose Aurograb (Table 6)

[3] = tested on: EMRSA-15; format: in vivo, S. aureus
Description: Methods: 60 female CD-1 mice (22-24 g) were given 1×10^7 cfu of EMRSA-15 as a 100 μl iv bolus.
All mice were terminated at 48 hours for culture of kidney, liver and spleen.
Results: expressed as log cfu per gram of tissue, unless the majority of mice (>5) were cleared (ie organs were culture-negative). N/A=not applicable. (Table 7)

[4] = tested on: EMRSA-15; format: in vivo, S. aureus; remark: listed apart in the source
Description: Method: 60 female CD-I mice (22-24 g) were given S. aureus (a fresh clinical isolate of EMRSA-15) at a dose of 8×10^7 cfu in a 100 μl iv bolus.
All mice were terminated at 48 hours for culture of kidney, liver and spleen. Mice fatalities prior to the 48 hour cull were not subject to organ colony counts.

[5] = Experiment 1, 1.5×10^7 cfu EMRSA-15, Aurograb 0.2 mg/kg single iv dose
[6] = Experiment 1, 1.5×10^7 cfu EMRSA-15, Aurograb 1 mg/kg single iv dose
[7] = Experiment 1, 1.5×10^7 cfu EMRSA-15, Aurograb 2 mg/kg single iv dose
[8] = Experiment 2, 9×10^6 cfu clinical isolate EMRSA-15, Aurograb 0.2 mg/kg
[9] = Experiment 2, doses as low as 0.2 mg
[10] = Group 4: Aurograb 2.0 mg/kg alone iv, 48 hours
[11] = Group 5: Aurograb 0.2 mg/kg alone iv, 10 mice
[12] = Group 5: Aurograb 0.2 mg/kg alone iv, 48 hours
[13] = Group 5: Aurograb 2.0 mg/kg alone iv, 48 hours

B1: Aurograb: human genetic recombinant antibody (scFv with histidine tag, SEQ ID NO: 2) binding GrfA, a staphylococcal ABC transporter protein (protein)
scFv: MAKVQLLQSATEVKKPGASVKVSCKAYGYTFTDYGITWVRQAPGQGLEWMGWISAYNGYTNYAQKFQDRITMTTDASTSTAYMELRSLRPDDTAVLYCARDREDASLLRDGHWGQGTLVTVSSGGGGSGGGGSGGGGSGGGGSETTLTQSPGTLSLSPGERATLSCRASQIVSSSYLAWYQQKPGQAPRLLIYGASSRATGIPDRFSGSGSGTDFTLTISKLEPEDFAVYYCQHYGSSSPWTSRPRDQSDIKRAAALEHHHHHH
modifications: histidine tag; human single chain (scFv) recombinant antibody
FIC ([1]; EMRSA strain 1): 0.006 | MIC Alone ([1]; EMRSA strain 1): 125 µg/mL | MIC In combination ([1]; EMRSA strain 1): 0.75 µg/mL | FIC ([1]; EMRSA strain 1A): 0.05 | MIC Alone ([1]; EMRSA strain 1A): 250 µg/mL | MIC In combination ([1]; EMRSA strain 1A): 12.5 µg/mL | FIC ([1]; EMRSA strain 2): 0.006 | MIC Alone ([1]; EMRSA strain 2): 125 µg/mL | MIC In combination ([1]; EMRSA strain 2): 0.75 µg/mL | FIC ([1]; EMRSA strain 2A): 0.05 | MIC Alone ([1]; EMRSA strain 2A): 250 µg/mL | MIC In combination ([1]; EMRSA strain 2A): 12.5 µg/mL | FIC ([1]; EMRSA strain 3): 0.012 | MIC Alone ([1]; EMRSA strain 3): 250 µg/mL | MIC In combination ([1]; EMRSA strain 3): 3 µg/mL | FIC ([1]; EMRSA strain 4): 0.0026 | MIC Alone ([1]; EMRSA strain 4): 125 µg/mL | MIC In combination ([1]; EMRSA strain 4): 0.325 µg/mL | FIC ([1]; EMRSA strain 5): 0.001 | MIC Alone ([1]; EMRSA strain 5): 250 µg/mL | MIC In combination ([1]; EMRSA strain 5): 0.325 µg/mL | FIC ([1]; EMRSA strain 6): 0.0026 | MIC Alone ([1]; EMRSA strain 6): 125 µg/mL | MIC In combination ([1]; EMRSA strain 6): 0.325 µg/mL | FIC ([1]; EMRSA strain 7): 0.0026 | MIC Alone ([1]; EMRSA strain 7): 125 µg/mL | MIC In combination ([1]; EMRSA strain 7): 0.325 µg/mL | FIC ([1]; EMRSA strain 8): 0.0013 | MIC Alone ([1]; EMRSA strain 8): 250 µg/mL | MIC In combination ([1]; EMRSA strain 8): 0.325 µg/mL | FIC ([1]; EMRSA strain 8A): 0.05 | MIC Alone ([1]; EMRSA strain 8A): 250 µg/mL | MIC In combination ([1]; EMRSA strain 8A): 12.5 µg/mL | FIC ([1]; EMRSA strain 9): 0.006 | MIC Alone ([1]; EMRSA strain 9): 125 µg/mL | MIC In combination ([1]; EMRSA strain 9): 0.75 µg/mL | FIC ([1]; EMRSA strain 10): 0.012 | MIC Alone ([1]; EMRSA strain 10): 125 µg/mL | MIC In combination ([1]; EMRSA strain 10): 1.5 µg/mL | FIC ([1]; EMRSA strain 11): 0.006 | MIC Alone ([1]; EMRSA strain 11): 125 µg/mL | MIC In combination ([1]; EMRSA strain 11): 0.75 µg/mL | FIC ([1]; EMRSA strain 11A): 0.05 | MIC Alone ([1]; EMRSA strain 11A): 250 µg/mL | MIC In combination ([1]; EMRSA strain 11A): 12.5 µg/mL | FIC ([1]; EMRSA strain 12): 0.0013 | MIC Alone ([1]; EMRSA strain 12): 250 µg/mL | MIC In combination ([1]; EMRSA strain 12): 0.325 µg/mL | FIC ([1]; EMRSA strain 12A): 0.003 | MIC Alone ([1]; EMRSA strain 12A): 250 µg/mL | MIC In combination ([1]; EMRSA strain 12A): 0.75 µg/mL | FIC ([1]; EMRSA strain 13): 0.006 | MIC Alone ([1]; EMRSA strain 13): 250 µg/mL | MIC In combination ([1]; EMRSA strain 13): 1.5 µg/mL | FIC ([1]; EMRSA strain 14): 0.012 | MIC Alone ([1]; EMRSA strain 14): 125 µg/mL | MIC In combination ([1]; EMRSA strain 14): 1.5 µg/mL | FIC ([1]; EMRSA strain 15): 0.012 | MIC Alone ([1]; EMRSA strain 15): 125 µg/mL | MIC In combination ([1]; EMRSA strain 15): 1.5 µg/mL | FIC ([1]; EMRSA strain 15A): 0.006 | MIC Alone ([1]; EMRSA strain 15A): 250 µg/mL | MIC In combination ([1]; EMRSA strain 15A): 0.75 µg/mL | FIC ([1]; EMRSA strain 16): 0.012 | MIC Alone ([1]; EMRSA strain 16): 250 µg/mL | MIC In combination ([1]; EMRSA strain 16): 1.5 µg/mL | FIC ([1]; EMRSA strain 17): 0.006 | MIC Alone ([1]; EMRSA strain 17): 250 µg/mL | MIC In combination ([1]; EMRSA strain 17): 0.75 µg/mL | FIC ([1]; NARSA 1 (Hiramatsu)): 0.001 | MIC Alone ([1]; NARSA 1 (Hiramatsu)): 250 µg/mL | MIC In combination ([1]; NARSA 1 (Hiramatsu)): 0.325 µg/mL | FIC ([1]; NARSA 2 (Hiramatsu)): 0.001 | MIC Alone ([1]; NARSA 2 (Hiramatsu)): 250 µg/mL | MIC In combination ([1]; NARSA 2 (Hiramatsu)): 0.325 µg/mL | FIC ([1]; NARSA 12 (France)): 0.003 | MIC Alone ([1]; NARSA 12 (France)): 250 µg/mL | MIC In combination ([1]; NARSA 12 (France)): 0.75 µg/mL | FIC ([1]; NARSA 17 (New York)): 0.001 | MIC Alone ([1]; NARSA 17 (New York)): 250 µg/mL | MIC In combination ([1]; NARSA 17 (New York)): 0.325 µg/mL | FIC ([1]; NARSA 119 (Linezolid R)): 0.02 | MIC Alone ([1]; NARSA 119 (Linezolid R)): 125 µg/mL | MIC In combination ([1]; NARSA 119 (Linezolid R)): 3 µg/mL | FIC ([1]; NARSA 120 (Linezolid R)): 0.02 | MIC Alone ([1]; NARSA 120 (Linezolid R)): 125 µg/mL | MIC In combination ([1]; NARSA 120 (Linezolid R)): 3 µg/mL | FIC ([1]; NARSA 121 (Linezolid R)): 0.02 | MIC Alone ([1]; NARSA 121 (Linezolid R)): 125 µg/mL | MIC In combination ([1]; NARSA 121 (Linezolid R)): 3 µg/mL | Kidney log cfu per gram of tissue [2, 5]: 8.5 ± 2.55 log cfu per gram of tissue | Liver log cfu per gram of tissue [2, 5]: 6.61 ± 3.03 log cfu per gram of tissue | Spleen log cfu per gram of tissue [2, 5]: 5.69 ± 1.16 log cfu per gram of tissue | Kidney log cfu per gram of tissue [2, 6]: 8.7 ± 2.6 log cfu per gram of tissue | Liver log cfu per gram of tissue [2, 6]: 5.40 ± 1.38 log cfu per gram of tissue | Spleen log cfu per gram of tissue [2, 6]: 5.33 ± 1.21 log cfu per gram of tissue | Kidney log cfu per gram of tissue [2, 7]: 7.62 ± 1.16 log cfu per gram of tissue | Liver log cfu per gram of tissue [2, 7]: 5.22 ± 1.39 log cfu per gram of tissue | Spleen log cfu per gram of tissue [2, 7]: 5.10 ± 1.29 log cfu per gram of tissue | Reduction in kidney bacterial counts ([2]; highest dose (2.0 mg/kg)): 0.8 log | Reduction in kidney bacterial counts ([2]; lower doses): no reduction | Kidney log cfu per gram of tissue [2, 8]: 7.14 ± 1.28 log cfu per gram of tissue | Liver log cfu per gram of tissue [2, 8]: 3.13 ± 0.44 log cfu per gram of tissue | Spleen log cfu per gram of tissue [2, 8]: 3.40 ± 0.64 log cfu per gram of tissue | Bacterial killing in the liver and spleen [2, 9]: evidence of bacterial killing | Reduction in viable staphylococci in the kidneys [2, 9]: no reduction | Drop in liver and spleen counts ([2]; single dose of 2.0 mg/kg in mice): approximately 2.0 log | Spleen, number of mice cleared ([3]; Group 4: Aurograb 2.0 mg/kg alone iv, 10 mice): 4 | Kidney Log cfu/g of tissue [3, 10]: 7.30 ± 1.26 Log cfu/g of tissue | Spleen Log cfu/g of tissue [3, 10]: 3.54 ± 0.61 Log cfu/g of tissue | Liver, number of mice cleared [3, 11]: 2 | Spleen, number of mice cleared [3, 11]: 3 | Kidney Log cfu/g of tissue [3, 12]: 7.50 ± 1.53 Log cfu/g of tissue | Liver Log cfu/g of tissue [3, 12]: 4.28 ± 1.28 Log cfu/g of tissue | Spleen Log cfu/g of tissue [3, 12]: 3.91 ± 0.87 Log cfu/g of tissue | Mortality ([4]; Aurograb alone 2.0 mg/kg, 10 mice, untreated group 7 deaths): 4 deaths | Survivors at 24 h (n = 10) ([4]; Group 5: Aurograb 2.0 mg/kg alone iv, 8×10^7 cfu): 6 | Kidney Log cfu/g tissue [4, 13]: 7.87 ± 1 Log cfu/g tissue | Liver Log cfu/g tissue [4, 13]: 5.18 ± 0.57 Log cfu/g tissue | Spleen Log cfu/g tissue [4, 13]: 5.53 ± 2.74 Log cfu/g tissue
